# In FireProtDB (doi:10.1093/protein/gzt061):
# B1: Limonene-1,2-epoxide hydrolase, Q9ZAG3 (parent)
# chain: MTSKIEQPRWASKDSAAGAASTPDEKIVLEFMDALTSNDAAKLIEYFAEDTMYQNMPLPPAYGRDAVEQTLAGLFTVMSIDAVETFHIGSSNGLVYTERVDVLRALPTGKSYNLSILGVFQLTEGKITGWRDYFDLREFEEAVDLPLRG
# Variants of: B1
# Conditions: Rhodococcus erythropolis; pH 7.1; Thermal; Fluorescence; Potassium phosphate 50mM; transition: 2; reversible: no; structure 1NWW; whole UniProt chain shown
Variant,Tm [°C],"change of melting temperature, mutant - wild type (higher = more stable) [°C]"
A66P,49.6,0.8
A17C L94C,56,7.2
A142R,46,-2.8
G18N,49.1,0.3
S15K,48.5,-0.3
S15P,49,0.2
M32C V83C,44,-4.8
K13P,44.8,-4
I5C E84C,64,15.2
I127F,46.3,-2.5
L94F,48.8,0
A20P,46.7,-2.1
S12R,49,0.2
G89C S91C,66,17.2
K110R,47.3,-1.5
D50P,42.8,-6
A16R,48.3,-0.5
N92K,56.1,7.3
N92R,50.6,1.8
Y62W,48.8,0

Variant,Tm [°C],"change of melting temperature, mutant - wild type (higher = more stable) [°C]"
D24C L122C,36,-12.8
A48C K126C,53,4.2
D33R,46.5,-2.3
D33K,47.3,-1.5
P57C D135C,35,-13.8
K4C A82C,59,10.2
E45R,47.8,-1
E45K,50.8,2
E68Q,49.3,0.5
A41S,49.1,0.3
A41R,48.8,0
D24R,45,-3.8
T76K,50.3,1.5
A17C N92C,64,15.2
I27M,47,-1.8
A72R,47,-1.8
M52C G129C,40,-8.8
L106R,46.5,-2.3
L122F,41.3,-7.5
Q69R,49.1,0.3

Variant,Tm [°C],"change of melting temperature, mutant - wild type (higher = more stable) [°C]"
Y96F,51.6,2.8
A19K,51.3,2.5
V102C,62,13.2
Y112C A142C,56,7.2
E124K,47.5,-1.3
E124R,46,-2.8
E124D,50.1,1.3
Q121V,38.8,-10
A105C V143C,46.5,-2.3
I44C E68C,56,7.2
K42R,47.5,-1.3
S111R,48.8,0
S111K,46.5,-2.3
D65E,49.3,0.5
T85P,42.8,-6
T85I,54.6,5.8
T85V,55.6,6.8
T85L,51.3,2.5
